Target: anti-Fas monoclonal antibody HFE7A produced by mouse-mouse hybridoma HFE7A (FERM BP-5828)
Test: peptide competition: 200 μg peptide preincubated with 0.25 μg HFE7A, then flow cytometry on WR19L12a cells

| Binder | inhibition of the binding of HFE7A to WR19L12a cells |
| --- | --- |
| KCRCKPNFFC [P110] | 60% |
| EINCTRTQNT [P100] | 50% |
